{"source": "FireProtDB (doi:10.1021/bi00107a010)", "proteins": {"B1": {"name": "wild type, Q40059 (protein)", "chain": "MSSMEKKPEGVNIGAGDRQNQKTEWPELVGKSVEEAKKVILQDKPAAQIIVLPVGTIVTMEYRIDRVRLFVDRLDNIAQVPRVG"}, "B2": {"name": "Subtilisin-chymotrypsin inhibitor-2A wild type, P01053 (protein)", "chain": "B1 chain with M4V, I13T, Q19H, Q21L, A46E, R73K"}}, "details": "Hordeum vulgare, Thermal, DSC, glycine-HCl 10 mM, reversible: yes, whole UniProt chain shown; for heat capacity change of unfolding / unfolding free energy: 25 °C", "note": "Changes are numbered by the printed parent chain.", "data": [{"protein": "B1", "values": [{"measurement": "heat capacity change of unfolding", "setting": "pH 2.2", "result": 0.79, "unit": "kcal/mol/K"}, {"measurement": "unfolding free energy", "setting": "pH 2.2", "result": 1.94, "unit": "kcal/mol"}, {"measurement": "heat capacity change of unfolding", "setting": "pH 2.5", "result": 0.79, "unit": "kcal/mol/K"}, {"measurement": "unfolding free energy", "setting": "pH 2.5", "result": 2.79, "unit": "kcal/mol"}, {"measurement": "heat capacity change of unfolding", "setting": "pH 2.8", "result": 0.79, "unit": "kcal/mol/K"}, {"measurement": "unfolding free energy", "setting": "pH 2.8", "result": 3.73, "unit": "kcal/mol"}, {"measurement": "heat capacity change of unfolding", "setting": "pH 3.2", "result": 0.79, "unit": "kcal/mol/K"}, {"measurement": "unfolding free energy", "setting": "pH 3.2", "result": 5.2, "unit": "kcal/mol"}, {"measurement": "heat capacity change of unfolding", "setting": "pH 3.5", "result": 0.79, "unit": "kcal/mol/K"}, {"measurement": "unfolding free energy", "setting": "pH 3.5", "result": 6.48, "unit": "kcal/mol"}]}, {"protein": "B2", "values": [{"measurement": "Tm", "setting": "pH 2.2", "result": 41.6, "unit": "°C"}, {"measurement": "unfolding enthalpy (calorimetric)", "setting": "pH 2.2", "result": 43.5, "unit": "kcal/mol"}, {"measurement": "unfolding enthalpy (van 't Hoff)", "setting": "pH 2.2", "result": 42.3, "unit": "kcal/mol"}, {"measurement": "Tm", "setting": "pH 2.5", "result": 47.2, "unit": "°C"}, {"measurement": "unfolding enthalpy (calorimetric)", "setting": "pH 2.5", "result": 49.2, "unit": "kcal/mol"}, {"measurement": "unfolding enthalpy (van 't Hoff)", "setting": "pH 2.5", "result": 45.5, "unit": "kcal/mol"}, {"measurement": "Tm", "setting": "pH 2.8", "result": 55.2, "unit": "°C"}, {"measurement": "unfolding enthalpy (calorimetric)", "setting": "pH 2.8", "result": 52.8, "unit": "kcal/mol"}, {"measurement": "unfolding enthalpy (van 't Hoff)", "setting": "pH 2.8", "result": 51.1, "unit": "kcal/mol"}, {"measurement": "Tm", "setting": "pH 3.2", "result": 64, "unit": "°C"}, {"measurement": "unfolding enthalpy (calorimetric)", "setting": "pH 3.2", "result": 61, "unit": "kcal/mol"}, {"measurement": "unfolding enthalpy (van 't Hoff)", "setting": "pH 3.2", "result": 60.8, "unit": "kcal/mol"}, {"measurement": "Tm", "setting": "pH 3.5", "result": 71, "unit": "°C"}, {"measurement": "unfolding enthalpy (calorimetric)", "setting": "pH 3.5", "result": 67.5, "unit": "kcal/mol"}, {"measurement": "unfolding enthalpy (van 't Hoff)", "setting": "pH 3.5", "result": 68.8, "unit": "kcal/mol"}]}]}
